This assay addresses PRAME … (ALY) peptide in complex with HLA-A*0201 (HLA-A2) (human). Put plainly: cell-based or functional assay.

In turn, “PRAME mTCRCAR (chimeric antigen receptor with an scFv from Pr20, IgG4 hinge, 4-1BB costimulatory and CD3zeta signaling domains), on human T cells” showed a cell death of neuroblastoma cells (SK-N-SH) with CD8+ CAR T cells at 24 hours of 98%.

(Values after patent publication US20240091260A1.)
